Laboratory results as given in the supplement of paper PMC9112550, “Optimization of the antimicrobial peptide Bac7 by deep mutational scanning” (BMC Biology, 2022).

Test system: Escherichia coli TOP10
Test: shrunken log2 fold change of peptide-encoding DNA abundance (4.5 h post-induction vs induction); higher = less antimicrobial activity (less host growth inhibition)
Settings: time post-induction: 4.5 h; library: site-saturation at positions 5, 18, 19, 20
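Note: peptides expressed intracellularly from a pBAD plasmid library in pooled LB shake-flask culture, induced with 0.3% L-arabinose, DNA abundance read by NGS, three biological replicates, DESeq2 with apeglm shrinkage.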

Row | Sequence | shrunken log2 fold change
1 | RRIRMRPPRLPRPRPRPMRPPRP | 1.79
2 | RRIRYRPPRLPRPRPRPDSTPRP | -0.112
3 | RRIRIRPPRLPRPRPRPENGPRP | -0.219
4 | RRIRMRPPRLPRPRPRPSIMPRP | 0.23
5 | RRIRMRPPRLPRPRPRPGRYPRP | 0.0164
6 | RRIRIRPPRLPRPRPRPEKEPRP | -0.00237
7 | RRIRDRPPRLPRPRPRPQMVPRP | -0.0637
8 | RRIRQRPPRLPRPRPRPSLSPRP | -0.227
9 | RRIRNRPPRLPRPRPRPAHRPRP | 0.264
10 | RRIRPRPPRLPRPRPRPYFMPRP | -0.555
11 | RRIRARPPRLPRPRPRPHIQPRP | -0.164
12 | RRIRVRPPRLPRPRPRPMPQPRP | 0.311
13 | RRIRRRPPRLPRPRPRPMGCPRP | -0.0336
14 | RRIRNRPPRLPRPRPRPKAFPRP | -0.0608
15 | RRIRERPPRLPRPRPRPFAEPRP | -0.326
16 | RRIRWRPPRLPRPRPRPPTDPRP | 0.415
17 | RRIRKRPPRLPRPRPRPNVEPRP | 0.192
18 | RRIRKRPPRLPRPRPRPRLVPRP | 0.338
19 | RRIRARPPRLPRPRPRPYHDPRP | -0.365
20 | RRIRPRPPRLPRPRPRPFYMPRP | -0.324
21 | RRIRKRPPRLPRPRPRPFCNPRP | 0.128
22 | RRIRGRPPRLPRPRPRPHTKPRP | 0.104
23 | RRIRFRPPRLPRPRPRPWAQPRP | -0.141
24 | RRIRTRPPRLPRPRPRPAGQPRP | -0.109
25 | RRIRNRPPRLPRPRPRPGMNPRP | -0.02

Row | Sequence | shrunken log2 fold change
26 | RRIRYRPPRLPRPRPRPDPAPRP | -0.164
27 | RRIRRRPPRLPRPRPRPHETPRP | 1.07
28 | RRIRCRPPRLPRPRPRPCQSPRP | 0.00299
29 | RRIRHRPPRLPRPRPRPFCDPRP | 0.128
30 | RRIRQRPPRLPRPRPRPEMGPRP | 0.223
31 | RRIRKRPPRLPRPRPRPPEHPRP | 0.197
32 | RRIRGRPPRLPRPRPRPVFAPRP | 0.696
33 | RRIRMRPPRLPRPRPRPMPMPRP | 0.194
34 | RRIRRRPPRLPRPRPRPSCSPRP | -0.163
35 | RRIRQRPPRLPRPRPRPAAPPRP | 0.243
36 | RRIRQRPPRLPRPRPRPFWYPRP | -0.171
37 | RRIRVRPPRLPRPRPRPSTVPRP | -0.0673
38 | RRIRCRPPRLPRPRPRPVMNPRP | -0.0483
39 | RRIRARPPRLPRPRPRPEEHPRP | -0.0106
40 | RRIRPRPPRLPRPRPRPMFEPRP | 0.0626
41 | RRIRGRPPRLPRPRPRPEWVPRP | 0.875
42 | RRIRFRPPRLPRPRPRPHNNPRP | -0.638
43 | RRIRWRPPRLPRPRPRPVVVPRP | 0.281
44 | RRIRRRPPRLPRPRPRPTMHPRP | 0.539
45 | RRIRSRPPRLPRPRPRPSICPRP | -0.0672
46 | RRIRTRPPRLPRPRPRPYNLPRP | -0.336
47 | RRIRHRPPRLPRPRPRPTGWPRP | 0.841
48 | RRIRTRPPRLPRPRPRPAVPPRP | 0.0514
49 | RRIRRRPPRLPRPRPRPHGYPRP | 0.0169
50 | RRIRTRPPRLPRPRPRPARSPRP | 0.0134
